Reference: patent publication EP1747015B1 (Janssen Biotech, Inc., dated 2012)

T1: murine Tissue Factor in murine brain extracts (murine, UniProt P20352 29-294)
T1 sequence (looked up): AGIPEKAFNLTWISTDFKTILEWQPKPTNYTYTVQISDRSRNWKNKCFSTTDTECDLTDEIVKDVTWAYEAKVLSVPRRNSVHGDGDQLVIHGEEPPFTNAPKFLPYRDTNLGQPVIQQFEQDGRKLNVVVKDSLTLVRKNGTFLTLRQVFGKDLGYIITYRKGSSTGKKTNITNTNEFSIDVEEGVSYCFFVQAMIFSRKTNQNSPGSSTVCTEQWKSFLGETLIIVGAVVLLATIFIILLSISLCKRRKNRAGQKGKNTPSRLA

T2: murine Tissue Factor on B6F10 melanoma cells (murine, UniProt P20352 29-294)
T2 construct: whole, on cells; also called cell-associated mTF
T2 sequence (looked up): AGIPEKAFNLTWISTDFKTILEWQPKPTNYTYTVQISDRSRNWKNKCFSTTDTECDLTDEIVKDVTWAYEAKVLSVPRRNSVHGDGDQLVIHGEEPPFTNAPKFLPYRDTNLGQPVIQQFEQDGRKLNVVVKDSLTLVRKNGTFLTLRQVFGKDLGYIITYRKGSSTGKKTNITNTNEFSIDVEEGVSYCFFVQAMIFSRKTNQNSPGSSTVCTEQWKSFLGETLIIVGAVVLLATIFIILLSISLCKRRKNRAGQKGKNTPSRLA


Legend:
[1] = target: T1, murine Tissue Factor in murine brain …; assay: cell-based or functional assay
[2] = target: T2, murine Tissue Factor on B6F10 melanoma …; assay: FACS on B6F10 melanoma cells that express mTF

Binder	EC50 Conc. (ug/ml), inhibition of fibrin clot formation in human plasma [1] [µg/mL]	EC50 [2] [nM]
PHD103 Fab (Fab, V domains shown) VH: QVQLVQSGAEVKKPGESLKISCKGSGYSFSNSWIAWVRQMPGKGLEWMGGIIGPGHSYTKYSPSFQGQVTISADKSISTAYLQWSSLKASDTAMYYCARINMGYFDYWGQGTLVTVSS VL: DIELTQPPSVSVAPGQTARISCSGDSLGLKKFVSWYQQKPGQAPVLVIYDDSNRPSGIPERFSGSNSGNTATLTISGTQAEDEADYYCGTYDQTIGHDVVFGGGTKLTVLG	63.3	
PHD127 Fab (Fab, V domains shown, Human HuCAL Fab; 8 (VH) and 9 (VL) for PHD127 are inferred from the order of the words and must be checked against the listing) VH: QVQLVQSGAEVKKPGESLKISCKGSYSFTNSWISWVRQMPGKGLEWMGIIDPDDSYTSYSPSFQGQVTISADKSISTAYLQWSSLKASDTAMYYCARGAGYGRMFGDVWGQGTLVTVSS VL: DIELTQPPSVSVAPGQTARISCSGDNLGSYYASWYQQKPGQAPVLVIYQDDNRPSGIPERFSGSNSGNTATLTISGTQAEDEADYYCGAYTYSTSWVFGGGTKLTVLG	0.82	4.35
PHD104 Fab (Fab, V domains shown) VH: QVQLVQSGAEVKKPGESLKISCKGSYSFTSNWIGWVRQMPGKGLEWMGWIYPSDSMTRYSPSFQGQVTISADKSISTAYLQWSSLKASDTAMYYCARYLFGLFDNWGQGTLVTVSS VL: DIELTQPPSVSVAPGQTARISCSGDNLGSYYVSWYQQKPGQAPVLVIYNDNNRPSGIPERFSGSNSGNTATLTISGTQAEDEADYYCATYDSSTDVFGGGTKLTVLG	23.8	
PHD126 Fab (Fab, V domains shown) VH: QVQLVQSGAEVKKPGESLKISCKGSYSFSNYWIGWVRQMPGKGLEWMGFIDPDDSDTNYSPSFQGQVTISADKSISTAYLQWSSLKASDTAMYYCARALYMQGGSFDSWGQGTLVTVSS VL: DIELTQPPSVSVAPGQTARISCSGDNLGSYYVSWYQQKPGQAPVLVIYRDTDRPSGIPERFSGSNSGNTATLTISGTQAEDEADYYCQSYDYGVSNQVFGGGTKLTVLG	0.23	
